{
  "source": "patent US20250019453A1",
  "about": "(SYNTHEKINE, published 2025)",
  "data": [
    {"molecular_target": "T1, mIL2Rb ECD antigen (murine, UniProt P16297 27-240)", "T1 construct": "The immunogen was the ECD fused to human IgG1 hinge and Fc; also called ECD of IL2Rb (mouse)", "T1 sequence": "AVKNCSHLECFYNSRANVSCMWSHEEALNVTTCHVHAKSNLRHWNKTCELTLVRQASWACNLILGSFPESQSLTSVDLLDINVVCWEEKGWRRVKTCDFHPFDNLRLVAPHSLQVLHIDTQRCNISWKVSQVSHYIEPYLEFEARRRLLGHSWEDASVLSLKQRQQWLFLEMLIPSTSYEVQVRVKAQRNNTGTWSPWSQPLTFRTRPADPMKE", "experiment": "PE-ELISA of phage clones", "values": [
      {"binder": "DR1471 (VHH, As a his-tagged phage clone periplasmic extract) VHH: EVQLVESGGGLVQAGGSLRLSCVFSGRAPASYAMAWFRQAVGNEREFVAAINWSGRRTYYADSVKGRFTISKDNAQNTAYLQMTNLEPEDTATYYCNAYLSGTYYWGQGTQVTVSS", "binding result": "binds"},
      {"binder": "DR1472 (VHH, As a his-tagged phage clone periplasmic extract) VHH: EVQLVESGGGLVRAGDSLRLSCAVSGLASSSFFMTWFRQGQGKEREFVATISWTGRTSYYAASVKGRFTVSRDNAKNTVYLQMNSLNSEDTAVYFCAAYPRTLVRNREPIHWGQGTQVTVSS", "binding result": "binds"}
    ]},
    {"molecular_target": "T2, hIL2Rg ECD antigen (human, UniProt P31785 23-262)", "T2 construct": "The immunogen was the ECD fused to human IgG1 hinge and Fc; also called ECD of IL2Rg (human); human IL-2Rγ", "T2 sequence": "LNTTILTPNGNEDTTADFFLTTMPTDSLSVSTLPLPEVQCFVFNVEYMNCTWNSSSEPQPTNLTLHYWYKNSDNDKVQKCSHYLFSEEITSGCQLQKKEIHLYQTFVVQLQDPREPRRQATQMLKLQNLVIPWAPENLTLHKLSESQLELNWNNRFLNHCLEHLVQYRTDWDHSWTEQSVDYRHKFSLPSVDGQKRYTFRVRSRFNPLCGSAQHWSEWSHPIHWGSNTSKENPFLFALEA", "experiment": "PE-ELISA of phage clones", "values": [
      {"binder": "hIL2Rg_VHH-1 (VHH, As a his-tagged phage clone periplasmic extract) VHH: QVQLQESGGGSVQAGGSLRLSCAASGFTFDDSDMGWYRQAPGNECDLVSTISSDGSTYYADSVKGRFTISQDNAKNTVYLQMDSVKPEDTAVYYCAADFMIAIQAPGAGCWGQGTQVTVSS", "binding result": "binds"},
      {"binder": "hIL2Rg_VHH-7 (VHH, As a his-tagged phage clone periplasmic extract) VHH: QVQLQESGGGLVQPGGSLRLSCAASGFTFDDREMNWYRQAPGNECELVSTISSDGSTYYADSVKGRFTISQDNAKNTVYLQMDSVKPEDTAVYYCAADFMIAIQAPGAGCWGQGTQVTVSS", "binding result": "binds"},
      {"binder": "hIL2Rg_VHH-23 (VHH, As a his-tagged phage clone periplasmic extract) VHH: QVQLQESGGGLVQPGGSLRLSCAASGFSFSSYPMTWARQAPGKGLEWVSTIASDGGSTAYAASVEGRFTISRDNAKSTLYLQLNSLKTEDTAMYYCTKGYGDGTPAPGQGTQVTVSS", "binding result": "binds"},
      {"binder": "hIL2Rg_VHH-2 (VHH, As a his-tagged phage clone periplasmic extract) VHH: QVQLQESGGGSVPAGGSLKLSCAASGFSFSSYPMTWARQAPGKGLEWVSTIASDGGSTAYAASVEGRFTISRDNAKSTLYLQLNSLKTEDTAMYYCTKGYGDGTPAPGQGTQVTVSS", "binding result": "binds"},
      {"binder": "hIL2Rg_VHH-5 (VHH, As a his-tagged phage clone periplasmic extract) VHH: QVQLQESGGGSVQAGGSLRLSCAASGFSFSSYPMTWARQAPGKGLEWVSTIASDGGSTAYAASVEGRFTISRDNAKSTLYLQLNSLKTEDTAMYYCTKGYGDGTPAPGQGTQVTVSS", "binding result": "binds"},
      {"binder": "hIL2Rg_VHH-18 (VHH, As a his-tagged phage clone periplasmic extract) VHH: QVQLQESGGGLVQPGGSLRLSCAASGFTFSSYPMTWARQAPGKGLEWVSTIASDGGSTAYAASVEGRFTISRDNAKSTLYLQLNSLKTEDTAMYYCTKGYGDGTPAPGQGTQVTVSS", "binding result": "binds"},
      {"binder": "hIL2Rg_VHH-4 (VHH, As a his-tagged phage clone periplasmic extract) VHH: QVQLQESGGGSVQAGGSLRLSCTASGFTFDDSDMGWYRQAPGNECELVSTISSDGNTYYTDSVKGRFTISQDNAKNTVYLQMNSLGPEDTAVYYCAAEPRGYYSNYGGRRECNYWGQGTQVTVSS", "binding result": "binds"},
      {"binder": "hIL2Rg_VHH-13 (VHH, As a his-tagged phage clone periplasmic extract) VHH: QVQLQESGGGSVQAGGSLRLSCTASRFIFDDSDMGWYRQAPGNECELVSTISSDGSTYYADSVKGRFTISRDNAKNTVYLQMNSLKPEDTAVYYCAAEPRGYYSNYGGRRECNYWGQGTQVTVSS", "binding result": "binds"},
      {"binder": "hIL2Rg_VHH-17 (VHH, As a his-tagged phage clone periplasmic extract) VHH: QVQLQESGGGLVQPGGSLRLSCAASGFTFSNAHMSWVRQAPGKGREWISSIYSGGSTWYADSVKGRFTISRDNSKNTLYLQLNSLKTEDTAMYYCAENRLHYYSDDDSLRGQGTQVTVSS", "binding result": "binds"},
      {"binder": "hIL2Rg_VHH-6 (VHH, As a his-tagged phage clone periplasmic extract) VHH: QVQLQESGGGAVQAGGSLRLSCAASGFTFSNAHMSWVRQAPGKGREWISSIYSGGSTWYADSVKGRFTISRDNSKNTLYLQLNSLKTEDTAMYYCAENRLHYYSDDDSLRGQGTQVTVSS", "binding result": "binds"},
      {"binder": "hIL2Rg_VHH-11 (VHH, As a his-tagged phage clone periplasmic extract) VHH: QVQLQESGGGSVQAGGSLRLSCAASGFTFSSAHMSWVRQAPGKGREWIASIYSGGGTFYADSVKGRFTISRDNAKNTLYLQLNSLKTEDTAMYYCATNRLHYYSDDDSLRGQGTQVTVSS", "binding result": "binds"},
      {"binder": "hIL2Rg_VHH-12 (VHH, As a his-tagged phage clone periplasmic extract) VHH: QVQLQESGGGSVQAGGSLRLSCAASGFTFSNAHMSWVRQAPGKGREWISSIYSGGSTWYADSVKGRFTISRDNSKNTLYLQLNSLKTEDTAMYYCAENRLHYYSDDDSLRGQGTQVTVSS", "binding result": "binds"},
      {"binder": "hIL2Rg_VHH-16 (VHH, As a his-tagged phage clone periplasmic extract) VHH: QVQLQESGGGLVQPGGSLRLSCVASGFTFSNAHMSWVRQAPGKGREWISSIYSGGSTWYADSVKGRFTISRDNSKNTLYLQLNSLKTEDTAMYYCAENRLHYYSDDDSLRGQGTQVTVSS", "binding result": "binds"},
      {"binder": "hIL2Rg_VHH-9 (VHH, As a his-tagged phage clone periplasmic extract) VHH: QVQLQESGGGSVQAGGSLRLSCTASGFTFDDSDMGWYRQAPGGECELVTISSDGSTYYADSVKGRFTISQDNAKNTVYLQMNSLKPEDTAVYYCAAEPRGYYSNYGGRRECNYWGQGTQVTVSS", "binding result": "binds"},
      {"binder": "hIL2Rg_VHH-14 (VHH, As a his-tagged phage clone periplasmic extract) VHH: QVQLQESGGGSVQAGGSLKLSCTVSGFTADDSDMGWYRQGPGNECELVTISSDGSTYYADSVKGRFTISQDNAKNTVYLQMNSLKPEDTAVYYCAAEPRGYYSNYGGRRECNYWGQGTQVTVSS", "binding result": "binds"},
      {"binder": "hIL2Rg_VHH-10 (VHH, As a his-tagged phage clone periplasmic extract) VHH: QVQLQESGGGSVQAGGSLRLSCAASGSIYSSAYIGWFRQAPGKKREGVAGIYTRDGSTAYADSVKGRFTISQDSAKKTVYLQMNSLKPEDTAMYYCAAGRRTKSYVYIFRPEEYNYWGQGTQVTVSS", "binding result": "binds"}
    ]},
    {"molecular_target": "T3, mIL2Rg ECD antigen (murine, UniProt P34902 23-263)", "T3 construct": "The immunogen was the ECD fused to human IgG1 hinge and Fc; also called ECD of IL2Rg (mouse)", "T3 sequence": "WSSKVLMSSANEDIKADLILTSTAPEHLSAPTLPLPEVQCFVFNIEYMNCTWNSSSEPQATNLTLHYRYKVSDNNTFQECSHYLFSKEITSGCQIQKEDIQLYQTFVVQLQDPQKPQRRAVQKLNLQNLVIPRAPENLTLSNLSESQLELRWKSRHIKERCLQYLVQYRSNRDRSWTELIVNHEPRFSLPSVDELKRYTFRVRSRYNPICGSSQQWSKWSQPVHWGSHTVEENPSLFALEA", "experiment": "PE-ELISA of phage clones", "values": [
      {"binder": "mIL2Rg_VHH2 (VHH, As a his-tagged phage clone periplasmic extract) VHH: QVQLQESGGGSVQPGGSLRLSCAASGSTYANYLMGWFRQAPGKEREGVAAIYSGGGSTYYADSVKGRFTISQDNAKNTLYLQMNSLKPEDTAMYYCAAASAVKGDKGDIVVVVTGTQRMEYDYWGHGTQVTVSS", "binding result": "binds"},
      {"binder": "mIL2Rg_VHH3 (VHH, As a his-tagged phage clone periplasmic extract) VHH: QVQLQESGGGSVQAGASLRLSCSVSGFTFDESVMSWLRQGPGNECDAVAIISSDDNTYYDDSVKGRFTISEDNAKNMVYLQMNSLKPEDTAVYYCAARRRRPVYDSDYELRPRPLCGDFGVWGQGTQVTVSS", "binding result": "binds"},
      {"binder": "mIL2Rg_VHH4 (VHH, As a his-tagged phage clone periplasmic extract) VHH: QVQLQESGGGSVQAGGSLRLSCIGSGLPFDEDDMGWYRQAPGNECELVSSISSDGTAYYADSVKGRFTISRDNAKNTVLLQMNSLKPEDTAVYYCAAGVHRQFGGSSSCGDAFYGMDYWGKGTQVTVSS", "binding result": "binds"},
      {"binder": "mIL2Rg_VHH5 (VHH, As a his-tagged phage clone periplasmic extract) VHH: QVQLQESGGGSVQAGGSLRLSCVASGDVYGRNSMAWFRQAPGKEREGVAVGYSVVTTTYYADSVKGRFTISEDNDKNTVYLEMNSLKPEDTAMYYCAADGNLWRGLRPSEYTYWGQGTQVTVSS", "binding result": "binds"},
      {"binder": "mIL2Rg_VHH6 (VHH, As a his-tagged phage clone periplasmic extract) VHH: QVQLQESGGGSVQAGGSLRLSCATSGFPYSRYCMGWFRQAPGKEREGVAAIEPDGSTSYADSVKGRFTISQDNAVNTLYLQMNNLKPEDTAMYYCAADERCFYLKDYDLRRPAQYRYWGQGTQVTVSS", "binding result": "binds"},
      {"binder": "mIL2Rg_VHH7 (VHH, As a his-tagged phage clone periplasmic extract) VHH: QVQLQESGGGLVQPGGSLRLSCTVSGFTFDESDMGWLRQNPGNECGVVSVITSDDNPYYDDSVKGRFTISEDNAKNMVYLQMNSLKPEDTGVYYCATRSRQPVYSRDYELRPRPLCGDFGVWGQGTQVTVSS", "binding result": "binds"},
      {"binder": "mIL2Rg_VHH9 (VHH, As a his-tagged phage clone periplasmic extract) VHH: QVQLQESGGGSVQAGGSLRLSCAASGFTFDDFDMGWYRQAPGNECELVSTISDDGSTYYADSVKGRSSISRDNAKNTVYLQMNSLKPEDTAVYYCAAEGALGSKTNCGWVGNFGYWGQGTQVTVSS", "binding result": "binds"},
      {"binder": "mIL2Rg_VHH8 (VHH, As a his-tagged phage clone periplasmic extract) VHH: QVQLQESGGGSVQAGGSLRLSCTASGFTFDDFDMGWYRQAPGNECELVSTISDDGSTYYADSVKGRSSISRDNAKNTVYLQMNRLKPEDTGVYYCAAEGALGSKTNCGWVGNFGYWGQGTQVTVSS", "binding result": "binds"},
      {"binder": "mIL2Rg_VHH10 (VHH, As a his-tagged phage clone periplasmic extract) VHH: QVQLQESGGGLVQPGGSLRLSCAASGFTFDDFDMGWYRQAPGNECELVSTISDDGSTYYADSVKGRSSISRDNAKSTVYLQMNRLKPEDTGVYYCAAEGALGSKTNCGWVGNFGYWGQGTQVTVSS", "binding result": "binds"},
      {"binder": "mIL2Rg_VHH11 (VHH, As a his-tagged phage clone periplasmic extract) VHH: QVQLQESGGGLVQPGGSLKLSCAASGFTFSDRDMGWYRQAPGNECERVSTISDDGSTYYADSVKGRSSISRDNAKNTVYLQMNSLKPEDTAVYYCAAEGALGSKTNCGWVGNFGYWGQGTQVTVSS", "binding result": "binds"}
    ]}
  ]
}
